Measured values: the supplement of paper PMC11246515
± gives the standard deviation of the averaged measurements.

Assay: total protein half-life in vivo (active degradation + dilution); higher = more stable protein
[1] = E. coli NCM3722 delta-clpP delta-lon delta-hslV, growth: N-lim chemostat, doubling time 6 h
[2] = E. coli NCM3722 delta-hslV, growth: N-lim chemostat, doubling time 6 h
[3] = wild type E. coli NCM3722, growth: N-lim chemostat, doubling time 6 h
[4] = wild type E. coli NCM3722, growth: P-lim chemostat, doubling time 6 h
[5] = E. coli NCM3722 delta-clpP, growth: N-lim chemostat, doubling time 6 h
[6] = E. coli NCM3722 delta-lon, growth: N-lim chemostat, doubling time 6 h
[7] = E. coli NCM3722 delta-smpB, growth: N-lim chemostat, doubling time 6 h
[8] = wild type E. coli NCM3722, growth: C-lim chemostat, doubling time 3 h
[9] = wild type E. coli NCM3722, growth: C-lim chemostat, doubling time 6 h
[10] = wild type E. coli NCM3722, growth: C-lim chemostat, doubling time 12 h
[11] = wild type E. coli NCM3722, growth: N-lim chemostat, doubling time 12 h
[12] = wild type E. coli NCM3722, growth: P-lim chemostat, doubling time 12 h

Sequence	total protein half-life in vivo [1] [h]	total protein half-life in vivo [2] [h]	total protein half-life in vivo [3] [h]	total protein half-life in vivo [4] [h]	total protein half-life in vivo [5] [h]	total protein half-life in vivo [6] [h]	total protein half-life in vivo [7] [h]	total protein half-life in vivo [8] [h]	total protein half-life in vivo [9] [h]	total protein half-life in vivo [10] [h]	total protein half-life in vivo [11] [h]	total protein half-life in vivo [12] [h]
MKILVTGGAGFIGSAVVRHIINNTQDSVVNVDKLTYAGNRESLADVSDSERYVFEHADICDAPAMARIFAQHQPDAVMHLAAESHVDRSITGPAAFIETNIVGTYVLLEAARNYWSALDSDKKNSFRFHHISTDEVYGDLPHPDEVNNTEELPLFTETTAYAPSSPYSASKASSDHLVRAWKRTYGLPTIVTNCSNNYGPYHFPEKLIPLVILNALEGKALPIYGKGDQIRDWLYVEDHARALYTVVTEGKAGETYNIGGHNEKKNIDVVLTICDLLDEIVPKEKSYREQITYVADRPGHDRRYAIDAEKIGRALGWKPQETFESGIRKTVEWYLSNTKWVDNVKSGAYQSWIEQNYEGRQ	5.58	5.31	5.85	7.66	–	–	–	–	–	–	–	–
MTQNIRPLPQFKYHPKPLETGAFEQDKTVECDCCEQQTSVYYSGPFYCVDEVEHLCPWCIADGSAAEKFAGSFQDDASIEGVEFEYDEEDEFAGIKNTYPDEMLKELVERTPGYHGWQQEFWLAHCGDFCVFIGYVGWNDIKDRLDEFANLEEDCENFGIRNSDLAKCLQKGGHCQGYLFRCLHCGKLRLWGDFS	5.27	–	–	–	–	–	–	–	–	–	–	–
MKAIDNQIRNISSSHQDKHSDKVNSHQHHGKVDKTHRAKIVEFDKLDNDSQIDNDFGLHIIYFLQHGHWKVNDRSHQMEKVWFYNSEPSIDIQEYNRFADNTTDTFIFTIIPDNNHVLKLSSPITVTVECKGGYYFINSSGDKSDIIYKVDGLSIIARNFFTLLSGNFKPDWRWDVSKETFTKEKFDSYVKSVFSKIDFYKQCGVINPQNANTAYFGDTDGRVGAVLYALLVSGHIGIREKGWSLLCELLKHEEMASSAYKHKNNKVLYDLLNTRDMILNELHQHVFLKDDAITPCIFLGDHTGDRFSTIFGDKYILTLLNSMRNMEGNKDSRINKNVVVLAGNHEINFNGNYTARLANHKLSAGDTYNLIKTLDVCNYDSERQVLTSHHGIIRDEEKKCYCLGALQVPFNQMKNPTDPEELANIFNKKHKEHMDDPLFHLIRSNTLKPTPVYANYFDNTTDFRPARERIFICGETLKGEDPSKYIRQKYGHHGPGVDHNQQFDNGIMGLNSLKEARDKNNKIIYSSGLSCFQLH	–	2.35 ± 0.097	2.27 ± 0.28	5.32 ± 0.097	2.18 ± 0.21	2.82	2.53	2.6 ± 0.029	4.34 ± 0.27	6	3.75	8.76 ± 0.24
MSFSEFYQRSINEPEQFWAEQARRIDWQTPFTQTLDHSNPPFARWFCEGRTNLCHNAIDRWLEKQPEALALIAVSSETEEERTFTFRQLHDEVNAVASMLRSLGVQRGDRVLVYMPMIAEAHITLLACARIGAIHSVVFGGFASHSVAARIDDAKPVLIVSADAGARGGKIIPYKKLLDDAISQAQHQPRHVLLVDRGLAKMARVSGRDVDFASLRHQHIGARVPVAWLESNETSCILYTSGTTGKPKGVQRDVGGYAVALATSMDTIFGGKAGSVFFCASDIGWVVGHSYIVYAPLLAGMATIVYEGLPTWPDCGVWWTIVEKYQVSRMFSAPTAIRVLKKFPTAEIRKHDLSSLEVLYLAGEPLDEPTASWVSNTLDVPVIDNYWQTESGWPIMAIARGLDDRPTRLGSPGVPMYGYNVQLLNEVTGEPCGVNEKGMLVVEGPLPPGCIQTIWGDDGRFVKTYWSLFSRPVYATFDWGIRDADGYHFILGRTDDVINVAGHRLGTREIEESISSHPGVAEVAVVGVKDALKGQVAVAFVIPKESDSLEDRDVAHSQEKAIMALVDSQIGNFGRPAHVWFVSQLPKTRSGKMLRRTIQAICEGRDPGDLTTIDDPASLDQIRQAMEE	–	–	–	–	–	–	–	–	0.366 ± 0.12	0.611	–	–
MNYEIKQEEKRTVAGFHLVGPWEQTVKKGFEQLMMWVDSKNIVPKEWVAVYYDNPDETPAEKLRCDTVVTVPGYFTLPENSEGVILTEITGGQYAVAVARVVGDDFAKPWYQFFNSLLQDSAYEMLPKPCFEVYLNNGAEDGYWDIEMYVAVQPKHH	4.8 ± 0.93	3.39 ± 0.23	3.16	2.6	2.75	–	4.26 ± 1.8	2.22 ± 0.21	3.9 ± 0.048	5.57 ± 0.35	4.89 ± 0.49	6.49 ± 0.56
MQAEILLTLKLQQKLFADPRRISLLKHIALSGSISQGAKDAGISYKSAWDAINEMNQLSEHILVERATGGKGGGGAVLTRYGQRLIQLYDLLAQIQQKAFDVLSDDDALPLNSLLAAISRFSLQTSARNQWFGTITARDHDDVQQHVDVLLADGKTRLKVAITAQSGARLGLDEGKEVLILLKAPWVGITQDEAVAQNADNQLPGIISHIERGAEQCEVLMALPDGQTLCATVPVNEATSLQQGQNVTAYFNADSVIIATLC [P0A9G8]	5.338 ± 0.023	6.82 ± 1.4	5.703 ± 0.02	6.2 ± 0.59	5.85 ± 0.37	6.41 ± 0.61	5.84 ± 0.2	3.04 ± 0.29	6.38 ± 0.15	12.7 ± 0.41	11.88 ± 0.075	12.13 ± 0.038
MFSIQQPLLVFSDLDGTLLDSHSYDWQPAAPWLTRLREANVPVILCSSKTSAEMLYLQKTLGLQGLPLIAENGAVIQLAEQWQEIDGFPRIISGISHGEISLVLNTLREKEHFKFTTFDDVDDATIAEWTGLSRSQAALTQLHEASVTLIWRDSDERMAQFTARLNELGLQFMQGARFWHVLDASAGKDQAANWIIATYQQLSGKRPTTLGLGDGPNDAPLLEVMDYAVIVKGLNREGVHLHDEDPARVWRTQREGPEGWREGLDHFFSAR	4.98 ± 0.28	4.17 ± 0.055	4.167 ± 0.036	5.43 ± 0.42	4.08 ± 0.42	4.3 ± 0.26	3.73 ± 0.22	2.87 ± 0.076	5.25 ± 0.12	8.64 ± 0.059	6.751 ± 0.019	10.5 ± 0.14
